Assay results reported in the supplement of paper PMC9170038.

Test system: MS2 coat protein
Experiment: apparent KD of MS2 coat protein; designed switch direction (-1 OFF switch, 1 ON switch): -1; higher = weaker reporter binding
Summary of the method: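 Three titration conditions were used: no input, 200 uM small-molecule ligand, and an oligonucleotide input. In each, SNAP-549-labelled MS2 coat protein was raised from 0.7 or 1.5 nM, doubling, to 3 µM over designed RNA switches transcribed on Illumina chips by stalled E. coli RNA polymerase. Curve fits of normalised cluster fluorescence gave values whose per-design median over clusters is the apparent KD.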

[1] = input ligand: microRNA oligo, concentration not stated
[2] = Eterna round: R95, input ligand: microRNA oligo, concentration not stated
[3] = Eterna round: R95, input ligand: FMN 200 uM
[4] = Eterna round: R95, input ligand: none

| Sequence | apparent KD of MS2 coat protein (input ligand: FMN 200 uM) | apparent KD of MS2 coat protein (input ligand: none) | apparent KD of MS2 coat protein [1] | apparent KD of MS2 coat protein [2] | apparent KD of MS2 coat protein [3] | apparent KD of MS2 coat protein [4] |
| --- | --- | --- | --- | --- | --- | --- |
| CGAUGUGGAGUGAGGAUAUCGUGUUCGAAAGAACGUGAGAAGGCACAUGAGGAUCACCCAUGUGAUUCAUGUCG [Omei Ex4B A7] (Eterna round: R97, puzzle: Brourd's mod of Exclusion 4) | 0.0409 µM | 0.0262 µM |  |  |  |  |
| UUAAUACAUGUAGGAUAUGCGUGGCGAAGCUAUGCAGAAGGACAUGAGGAUCACCCAUGUUCAUGCGUCCGCGUACGGAUGCAA [JL Eng1 1.21 mod 7] (Eterna round: R96, puzzle: Exclusion NG 1) | 0.0199 µM | 0.0149 µM | 0.0126 µM |  |  |  |
| CUGCUCCGUGUAGGAUAUCCAUGCAACCAAUAUGGAGAAGGACAUGAGGAUCACCCAUGUAUGUUAUUAUCACGUGAAGCGUCC [Design 23] (Eterna round: R96, puzzle: Exclusion NG 1) | 0.0286 µM | 0.0312 µM | 0.024 µM |  |  |  |
| GGAUUCCAGUGAGGAUAUCCAAAUAAAAGCCAUGGAGAAGGCACAUGAGGAUCACCCAUGUAGGGCAAUAACAGCGAACGCUGC [Erenlege] (Eterna round: R96, puzzle: Exclusion NG 1) | 0.073 µM | 0.0308 µM | 0.0433 µM |  |  |  |
| UAUUUGUGAGGAUAUGAGUCGUAGAACAAUAGUACUACGUCUCAGAAGGCACAUGAGGAUCACCCAUGUACCUC [Fiskers Ex 4 Super Stable 44 mod 30] (puzzle: Exclusion 4) |  |  |  | 0.0169 µM |  |  |
| GAGAAACAUGAGGAUCACCCAUGUGAGGAUAUGAAAAAGAAAAGAAAAGAAAGAAGAAUCAGAAGGCACAAAGU [salish99-ex1_r3_088] (puzzle: Exclusion 1) |  |  |  | 0.0297 µM | 0.0318 µM | 0.0329 µM |
| AAGCACAGAGGAUAUACAAUCCUCAGUGGGUCUGGCGAGCCACAUGAGGAUCACCCAUGUAGAAGGCUGGGCUC [Xezaoron] (puzzle: Exclusion 2) |  |  |  | 0.011 µM |  |  |
| AGGGACGUAGGAUAUACCGUGUAGUACAUGAGGAUCACCCAUGUUUGCCUCAUAGUCCACGUAGAAGGAUGUGACA [Eternabot (L2) Solution 37] (Eterna round: R97, puzzle: Exclusion 5) | 0.0709 µM | 0.0641 µM |  |  |  |  |
| GAAAACGCAGAGGAUAUUUCAGAUCAAAGCUGCAAAGAAGGCUGCACAUGAGGAUCACCCAUGUGGUCUUCAAG [Mat - Exclusion 6 - JL Mod - D9] (Eterna round: R97, puzzle: Exclusion 6) | 0.152 µM | 0.029 µM |  |  |  |  |
| ACAUGAGGAUCACCCAUGUCUGGCUGGUCCGCUCCGGCUGUUGAGGAUAUAGUUCGGUGUCCGCGCUAGAAGGUGAGGGCUGGC [Aenatbe mod 35] (Eterna round: R96, puzzle: Exclusion NG 3) | 0.0218 µM | 0.0313 µM | 0.0212 µM |  |  |  |
| CAGUACUGAGGAUAUACAUGAGGAUCACCCAUGUGUUCCAGCUAGGAAAGUAGCAAAAGUAGAAGGCAGUACUG [salish99_ex3_r3_072] (puzzle: Exclusion 3) |  |  |  | 0.0267 µM | 0.291 µM | 0.0216 µM |
| ACGCCGCAAGGAUAUCGUAAAGCAGACAUGAGGAUCACCCAUGUGAUAUCAGAAAGGCCACGAGAAGGUGCACAAG [Tigeor] (puzzle: Exclusion 5) |  |  |  | 0.0203 µM | 0.0324 µM | 0.0213 µM |
| UAACAUGUAGAAGGAUAUCUGCACGUUUAGUGCAGAGAAGGUCUAACAUGAGGAUCACCCAUGUAGAUCAUUAAUUAAUUAAUU [ENG1/8-B2] (Eterna round: R96, puzzle: Exclusion NG 1) | 0.0158 µM | 0.0129 µM | 0.00945 µM |  |  |  |
| ACAUGAGGAUCACCCAUGUCCGGCUGGUCUGUUCCGGUUGUCGAGGAUAUAGUUCGGUGUUCGCGCUAGAAGGUGGGAGCUGGG [Aenatbe mod 55] (Eterna round: R96, puzzle: Exclusion NG 3) | 0.308 µM | 0.19 µM | 0.163 µM |  |  |  |
| AGAUGGCGAGGAUAUACAUGAGGAUCACCCAUGUGAAUAAGAAGAGUGAGGAAGAAAAGUAGAAGGCGCUGUCA [Mat - Exclusion 3 - Mod of Salish D31] (puzzle: Exclusion 3) |  |  |  | 0.0646 µM | 0.128 µM | 0.0998 µM |
| GAUCGCAUAGUCAGGAUAUCGAAGUAUCGGGACCGCGAGAAGGGACAUGAGGAUCACCCAUGUUUCAUGGGAAG [Riesaratce] (Eterna round: R97, puzzle: Brourd's mod of Exclusion 4) | 0.182 µM | 0.113 µM |  |  |  |  |
| AUAAUGUCAGGAUAUCAGUCGUACAGCGAUAGCUGUACGACUGAGAAGGGACAUGAGGAUCACCCAUGUGGUCA [E4/6-A4] (Eterna round: R97, puzzle: Exclusion 4) | 0.0133 µM | 0.0181 µM |  |  |  |  |

| Sequence | apparent KD of MS2 coat protein (input ligand: FMN 200 uM) | apparent KD of MS2 coat protein (input ligand: none) | apparent KD of MS2 coat protein [1] | apparent KD of MS2 coat protein [2] | apparent KD of MS2 coat protein [3] | apparent KD of MS2 coat protein [4] |
| --- | --- | --- | --- | --- | --- | --- |
| UUAUACGCUGAGGAUAUCUUCACUGAAAAGUGAAGAGAAGGCGGUACAUGAGGAUCACCCAUGUCUAUGGGCAG [Ex-6 Malc#19] (puzzle: Exclusion 6) |  |  |  | 0.388 µM | 0.381 µM | 0.478 µM |
| GUGCCACAUGAGGAUCACCCAUGUGAGGAUAUGGCCUGUUUGGCGUGUGCUGGCUCUGUCAGAAGGCGCGUGGG [salish99_ex1_r4_037] (Eterna round: R97, puzzle: Exclusion 1) | 0.0391 µM | 0.0268 µM |  |  |  |  |
| GAGAGAAUCUAGGAUAUGUCAAGAGAAGGAGAGAUAGAAGGAGAGACAUGAGGAUCACCCAUGUCUUCGUGUAG [Default title] (Eterna round: R97, puzzle: Exclusion 6) | 0.0194 µM | 0.0178 µM |  |  |  |  |
| UAUUAGUAAGGAUAUGAGACGUAGGACUAAUGUCCUACGUCUCAGAAGGUACAUGAGGAUCACCCAUGUUUAUU [Mod of Fisker 8 - Jieux - Exclusion 4] (Eterna round: R97, puzzle: Exclusion 4) | 0.0235 µM | 0.0193 µM |  |  |  |  |
| AGUUGGCAAGGAUAUACAUGAGGAUCACCCAUGUGAAAUUAUAGUGAGGAAAUGAAAAGUAGAAGGUGCUGACA [Mod of Mat 3 - Jieux - Exclusion 3] (Eterna round: R97, puzzle: Exclusion 3) | 0.114 µM | 0.0309 µM |  |  |  |  |
| CUUUUGUGAGGAUAUUAGUAGUAAAUAAAUAAAAUUACUACUGAGAAGGCACAUGAGGAUCACCCAUGUUUCUC [salish99_ex4_r3_065] (Eterna round: R96, puzzle: Exclusion 4) | 0.278 µM | 0.0355 µM | 0.0312 µM |  |  |  |
| UUAAUUAGCAGACUAAUACCUCACAUGAGGAUCACCCAUGUGCAGGAUAUCAGCUCGAUUAGAGCUGAGAAGGGCACUGUCUGC [ExNG3/12-A1] (Eterna round: R96, puzzle: Exclusion NG 3) | 0.0148 µM | 0.0113 µM | 0.00801 µM |  |  |  |
| GUGUAGUGAGGAUAUCGUUGUUAGGAGGAGAAGGUAGGAGGCGAGAAGGCACAUGAGGAUCACCCAUGUAUGAG [JR_Exclu4_Sub063] (puzzle: Exclusion 4) |  |  |  | 0.0235 µM |  |  |
| AAUAGCUAAGGAUAUACAUGAGGAUCACCCAUGUAAAACACUACUUGGAACCGCCUCGGUAGAAGGUAGAAAAU [Arbean] (puzzle: Exclusion 3) |  |  |  | 0.0215 µM |  |  |
| AUAAUGUCAGGAUAUCAGUCGACUAGCUGCGGCUAGUCGACUGAGAAGGGACAUGAGGAUCACCCAUGUAGAUC [E4/18-A3] (Eterna round: R97, puzzle: Exclusion 4) | 0.244 µM | 0.992 µM |  |  |  |  |
| AAGAAGAUCAAAGGAUAUGGAGCUGAAACGGCGCUAGAAGGUUGUCUAGUGUAACAUGAGGAUCACCCAUGUAGGUACCUCUAA [AK ExNG1-V2-1.1] (Eterna round: R96, puzzle: Exclusion NG 1) | 0.73 µM | 0.847 µM | 0.376 µM |  |  |  |
| GUAUGUUAUGAGGAUAUCGGUGAACAUACACAUCGAGAAGGCAUGACAUGAGGAUCACCCAUGUCAAGGAUGAG [Exclusion 6 - B - 18:c] (puzzle: Exclusion 6) |  |  |  | 0.0177 µM | 0.0719 µM | 0.0227 µM |
| GCAGGAUAAGUCAGGAUAUACCUAUGGAUACAUAGGUAGAAGGGACAUGAGGAUCACCCAUGUGCCUCACCUGC [Fiskers BMX 4 - 57] (puzzle: Brourd's mod of Exclusion 4) |  |  |  | 0.0166 µM | 0.0487 µM | 0.0161 µM |
| GCAUCGUGAGGAUAUACAUGAGGAUCACCCAUGUGGCGGAUCUACCAGCCAGCAAAAUGUAGAAGGCAUUGCUU [Eternabot (L2) Solution 19] (Eterna round: R97, puzzle: Exclusion 3) | 0.123 µM | 0.142 µM |  |  |  |  |
| UUGCUCCCUUAGUACUCUACAAGCUUUUUGUUCGUUUUAACAUGAGGAUCACCCAUGUCUAGUGGAUCUGAUCGGGU [JL ViennaUCT Isreen mod 4] (puzzle: Sensor v3, turn-off variant 2) |  |  |  | 0.226 µM | 0.136 µM | 0.165 µM |
| CUGUUCCGUGUAGGAUAUGCAUAUUCUCAUUAUGCAGAAGGACAUGAGGAUCACCCAUGUAUGUUAUUAUCAUGUGUUACAUGU [Design 6] (Eterna round: R96, puzzle: Exclusion NG 1) |  |  | 0.0224 µM |  |  |  |
| GGAGUGUGAGGAUAUAUGGUGAAGGUGAAGAGAGAGGAGGAGUAGAAGGUACAUGAGGAUCACCCAUGUUUAGG [JR_Exclu4_Sub072] (puzzle: Exclusion 4) |  |  |  | 0.0385 µM |  |  |
